The test system of this test is intracellular proteome of ENR+CD and ENR organoids. Nature of the test: LC-MS/MS TMT proteomics of ENR+CD versus ENR organoids. It counts as cell-based, C57BL/6 mice. The settings on record: for Average logFC / M1-1 Log2 Median Normalized / M1-2 Log2 Median Normalized / M2-1 Log2 Median Normalized / M2-2 Log2 Median Normalized: protein abundance, ENR+CD versus ENR organoids; for Average logFC: aggregate of the four sample pairs; for M1-1 Log2 Median Normalized: replicate M1-1; for M1-1 Log2 Median Normalized / M1-2 Log2 Median Normalized / M2-1 Log2 Median Normalized / M2-2 Log2 Median Normalized: log2 ratio; for M1-2 Log2 Median Normalized: replicate M1-2; for M2-1 Log2 Median Normalized: replicate M2-1; for M2-2 Log2 Median Normalized: replicate M2-2; for change: up = enriched in ENR+CD, down = enriched in ENR, FDR<0.05 and log fold change cut-off. The source says: Because PCs are highly secretory, protein-rich cells, Applicants sought to assess the total intracellular proteome between conditions through liquid chromatography mass spectrometry (LC-MS/MS)-based proteomics. Applicants quantified relative protein abundance across eight samples using isobaric mass tag labeling from four ENR and four ENR+CD samples (M1-1 through M2-2, first digit denotes biological donor, second digit denotes technical replicate) (FIG. 3A). Samples were processed and analyzed in a single 10-plex by LC-MS/MS (FIG. 9A).
To affirm the reproducibility of the associated proteins in the ENR+CD-enriched proteome, Applicants performed relative quantification within differentiation sets.
Mass spectrometry proteomics sample preparation, sequencing, and quantification. Organoid cell pellets were isolated from Matrigel with mechanical dissociation and washed (cold PBS 5X) to remove residual extracellular protein. Proteins were extracted from cell pellets with 8 M urea (Sigma), reduced with 5 mM DTT (Thermo Fisher Pierce) for 45 minutes, alkylated with 10 mM IAA (Sigma) for 45 minutes in the dark, and double digested with both Lysyl Endopeptidase “LysC” (Wako) and trypsin (Promega) overnight at RT. A small aliquot of cellular lysate was removed from each sample for protein quantification via the Pierce™ BCA Protein Assay Kit (Pierce). After proteolytic digestion, the samples were quenched using formic acid to a final concentration of 1.0% and subsequently desalted on 10 mg OASIS HLB solid phase columns (Waters).
The peptides were labeled with TMT-10 isobaric mass tag reagent according to manufacturer's instructions (ThermoFisher Scientific). The peptides were labeled at a 1:8 ratio of peptide to TMT reagent, followed by 1-hour incubation at RT with bench top shaking at 850 rpm. After incubation, a […] of labeled tryptic peptide was removed from each labeled condition, desalted with C18 stage tips, and analyzed via LC-MS/MS using a Thermo Fisher Q Exactive Plus Hybrid Mass Spectrometer (QE-Plus) coupled to a Thermo Fisher EASY-nLC 1000 liquid chromatograph to ensure isobaric label incorporation >95%. An additional 1.0 μg of labeled tryptic peptide was removed from each channel, mixed together, desalted on a C18 stage tip, and analyzed via LC-MS to ensure equal relative protein loads. During these quality control steps, the labeled peptides were stored, unquenched at −80° C.

B1: P02772 (protein, UniProt P02772 1-605, looked up)
chain: MKWITPASLILLLHFAASKALHENEFGIASTLDSSQCVTEKNVLSIATITFTQFVPEATEEEVNKMTSDVLAAMKKNSGDGCLESQLSVFLDEICHETELSNKYGLSGCCSQSGVERHQCLLARKKTAPASVPPFQFPEPAESCKAHEENRAVFMNRFIYEVSRRNPFMYAPAILSLAAQYDKVVLACCKADNKEECFQTKRASIAKELREGSMLNEHVCSVIRKFGSRNLQATTIIKLSQKLTEANFTEIQKLALDVAHIHEECCQGNSLECLQDGEKVMTYICSQQNILSSKIAECCKLPMIQLGFCIIHAENGVKPEGLSLNPSQFLGDRNFAQFSSEEKIMFMASFLHEYSRTHPNLPVSVILRIAKTYQEILEKCSQSGNLPGCQDNLEEELQKHIEESQALSKQSCALYQTLGDYKLQNLFLIGYTRKAPQLTSAELIDLTGKMVSIASTCCQLSEEKWSGCGEGMADIFIGHLCIRNEASPVNSGISHCCNSSYSNRRLCITSFLRDETYAPPPFSEDKFIFHKDLCQAQGKALQTMKQELLINLVKQKPELTEEQLAAVTADFSGLLEKCCKAQDQEVCFTEEGPKLISKTRDALGV
modifications: full-length
Regarding B1, the “Average logFC” value was −1.438, the “M1-1 Log2 Median Normalized” value was −1.616, the “M1-2 Log2 Median Normalized” value was −1.696 and the “M2-1 Log2 Median Normalized” value was −1.1235. Further, the “M2-2 Log2 Median Normalized” value is recorded as −1.316 and the change entry is recorded as “down”.

B2: P03958 (protein, UniProt P03958 1-352, looked up)
chain: MAQTPAFNKPKVELHVHLDGAIKPETILYFGKKRGIALPADTVEELRNIIGMDKPLSLPGFLAKFDYYMPVIAGCREAIKRIAYEFVEMKAKEGVVYVEVRYSPHLLANSKVDPMPWNQTEGDVTPDDVVDLVNQGLQEGEQAFGIKVRSILCCMRHQPSWSLEVLELCKKYNQKTVVAMDLAGDETIEGSSLFPGHVEAYEGAVKNGIHRTVHAGEVGSPEVVREAVDILKTERVGHGYHTIEDEALYNRLLKENMHFEVCPWSSYLTGAWDPKTTHAVVRFKNDKANYSLNTDDPLIFKSTLDTDYQMTKKDMGFTEEEFKRLNINAAKSSFLPEEEKKELLERLYREYQ
modifications: full-length
With B2, the “Average logFC” value was 1.34, the “M1-1 Log2 Median Normalized” value came to 1.339, the “M1-2 Log2 Median Normalized” value amounted to 0.074 and the “M2-1 Log2 Median Normalized” value came out at 1.5985. The “M2-2 Log2 Median Normalized” value turned out to be 1.501 and the change result is on record as “up”.

B3: P18242 (protein, UniProt P18242 1-410, looked up)
chain: MKTPGVLLLILGLLASSSFAIIRIPLRKFTSIRRTMTEVGGSVEDLILKGPITKYSMQSSPKTTEPVSELLKNYLDAQYYGDIGIGTPPQCFTVVFDTGSSNLWVPSIHCKILDIACWVHHKYNSDKSSTYVKNGTSFDIHYGSGSLSGYLSQDTVSVPCKSDQSKARGIKVEKQIFGEATKQPGIVFVAAKFDGILGMGYPHISVNNVLPVFDNLMQQKLVDKNIFSFYLNRDPEGQPGGELMLGGTDSKYYHGELSYLNVTRKAYWQVHMDQLEVGNELTLCKGGCEAIVDTGTSLLVGPVEEVKELQKAIGAVPLIQGEYMIPCEKVSSLPTVYLKLGGKNYELHPDKYILKVSQGGKTICLSGFMGMDIPPPSGPLWILGDVFIGSYYTVFDRDNNRVGFANAVVL
modifications: full-length
For B3, the “Average logFC” value amounted to 1.296, the “M1-1 Log2 Median Normalized” value came to 1.508, the “M1-2 Log2 Median Normalized” value was 1.211 and the “M2-1 Log2 Median Normalized” value was 0.9875. The “M2-2 Log2 Median Normalized” value is 1.479 and the change entry was “up”.

B4: P04184 (protein, UniProt P04184 1-233, looked up)
chain: MSYINLPTVLPSSPSKTRGQIQVILGPMFSGKSTELMRRVRRFQIAQYKCLVIKYAKDTRYSNSFSTHDRNTMDALPACMLRDVTQESLGVAVIGIDEGQFFPDIVDFCEMMANEGKTVIVAALDGTFQRKAFGSILNLVPLAESVVKLTAVCMECFREAAYTKRLGLEKEVEVIGGADKYHSVCRLCYFKKSSAQTAGSDNKNCLVLGQPGEALVVRKLFASQQVLQYNSAN
modifications: full-length
Take B4: the “Average logFC” value is recorded as −1.187, the “M1-1 Log2 Median Normalized” value was −1.268, the “M1-2 Log2 Median Normalized” value was −1.033 and the “M2-1 Log2 Median Normalized” value is reported as −1.0175. Moreover, the “M2-2 Log2 Median Normalized” value was −1.428 and the change result was “down”.

B5: P06728 (protein, UniProt P06728 1-395, looked up)
chain: MFLKAAVLTLALVAITGTRAEVTSDQVANVVWDYFTQLSNNAKEAVEQFQKTDVTQQLSTLFQDKLGDASTYADGVHNKLVPFVVQLSGHLAQETERVKEEIKKELEDLRDRMMPHANKVTQTFGENMQKLQEHLKPYAVDLQDQINTQTQEMKLQLTPYIQRMQTTIKENVDNLHTSMMPLATNLKDKFNRNMEELKGHLTPRANELKATIDQNLEDLRRSLAPLTVGVQEKLNHQMEGLAFQMKKNAEELQTKVSAKIDQLQKNLAPLVEDVQSKVKGNTEGLQKSLEDLNRQLEQQVEEFRRTVEPMGEMFNKALVQQLEQFRQQLGPNSGEVESHLSFLEKSLREKVNSFMSTLEKKGSPDQPQALPLPEQAQEQAQEQAQEQVQPKPLES
modifications: full-length
As to B5, the “Average logFC” value was −1.57, the “M1-1 Log2 Median Normalized” value is on record as −1.343, the “M1-2 Log2 Median Normalized” value is listed as −2.171 and the “M2-1 Log2 Median Normalized” value is −1.8605. The “M2-2 Log2 Median Normalized” value is reported as −0.907 and the change entry is reported as “down”.

B6: P11725 (protein, UniProt P11725 1-354, looked up)
chain: MLSNLRILLNNAALRKGHTSVVRHFWCGKPVQSQVQLKGRDLLTLKNFTGEEIQYMLWLSADLKFRIKQKGEYLPLLQGKSLGMIFEKRSTRTRLSTETGFALLGGHPSFLTTQDIHLGVNESLTDTARVLSSMTDAVLARVYKQSDLDTLAKEASIPIVNGLSDLYHPIQILADYLTLQEHYGSLKGLTLSWIGDGNNILHSIMMSAAKFGMHLQAATPKGYEPDPNIVKLAEQYAKENGTKLSMTNDPLEAARGGNVLITDTWISMGQEDEKKKRLQAFQGYQVTMKTAKVAASDWTFLHCLPRKPEEVDDEVFYSPRSLVFPEAENRKWTIMAVMVSLLTDYSPVLQKPKF
modifications: full-length
As to B6, the “Average logFC” value was −1.477, the “M1-1 Log2 Median Normalized” value is recorded as −1.478, the “M1-2 Log2 Median Normalized” value is −1.458 and the “M2-1 Log2 Median Normalized” value is listed as −2.2695. Further, the “M2-2 Log2 Median Normalized” value is listed as −1.132 and the change entry is recorded as “down”.

B7: P0C027 (protein, UniProt P0C027 1-164, looked up)
chain: MKCKPNQTRTYDPEGFKKRAACLCFRSEREDEVLLVSSSRYPDRWIVPGGGMEPEEEPDGAAVREVYEEAGVKGKLGRLLGVFEQNQDRKHRTYVFVLTVTELLEDWEDSVSIGRKREWFKIEDAIKVLQCHKPVHAEYLEKLKLGGSPTNGNSAAPSPPESEP
modifications: full-length
Regarding B7, the “Average logFC” value came out at 1.134, the “M1-1 Log2 Median Normalized” value is 1.368, the “M1-2 Log2 Median Normalized” value was 1.133 and the “M2-1 Log2 Median Normalized” value is reported as 0.8135. The “M2-2 Log2 Median Normalized” value was 1.192 and the change entry is “up”.

B8: O88803 (protein, UniProt O88803 1-151, looked up)
chain: MIPTTILISAALLSSALAGPWANICASKSSNEIRTCDSYGCGQYSAQRTQRHHPGVDVLCSDGSVVYAPFTGKIVGQEKPYRNKNAINDGIRLSGRGFCVKIFYIKPIKYKGSIKKGEKLGTLLPLQKIYPGIQSHVHVENCDSSDPTAYL
modifications: full-length
For the molecule B8, the “Average logFC” value worked out at 1.443, the “M1-1 Log2 Median Normalized” value stood at 1.692, the “M1-2 Log2 Median Normalized” value was determined as 1.063 and the “M2-1 Log2 Median Normalized” value was 1.4425. In addition, the “M2-2 Log2 Median Normalized” value is recorded as 1.463 and the change entry was “up”.

Source of the values: US11994512B2, “Single-cell genomic methods to generate ex vivo cell systems that recapitulate in vivo biology with improved fidelity” (Massachusetts Institute of Technology, priority 2018, dated 2024).
